In publication PMC4019986, “Structural and biochemical characterization of the KLHL3–WNK kinase interaction important in blood pressure regulation” (Biochemical Journal, 2014):
Numbering of substitutions follows the chain as printed. Ends that are not written are not given here. Peptide text beside a SMILES is read from it. * marks the point of attachment. X1 = N[C@H]1CS[As]2SC[C@H](NC1=O)C(=O)N1CCC[C@H]1C(=O)NCC(=O)N[C@H]1CS[As](SC[C@@H](C(=O)*)NC1=O)c1c(O)ccc3c1Oc1c(ccc(O)c12)C31OC(=O)c2ccccc21

T1: GST–KLHL3^290–587 N529K (human, UniProt Q9UH77-1 290-587, N529K)
T1 construct: KLHL3, human, NM_017415.2, Kelch domain, residues 290-587, with the Gordon's syndrome mutation N529K; Mutation found in patients with Gordon's syndrome; also called KLHL3 N529K; source: E. coli BL21, purified (glutathione–Sepharose); not shown: GST, N-terminal, kept
T1 sequence (looked up): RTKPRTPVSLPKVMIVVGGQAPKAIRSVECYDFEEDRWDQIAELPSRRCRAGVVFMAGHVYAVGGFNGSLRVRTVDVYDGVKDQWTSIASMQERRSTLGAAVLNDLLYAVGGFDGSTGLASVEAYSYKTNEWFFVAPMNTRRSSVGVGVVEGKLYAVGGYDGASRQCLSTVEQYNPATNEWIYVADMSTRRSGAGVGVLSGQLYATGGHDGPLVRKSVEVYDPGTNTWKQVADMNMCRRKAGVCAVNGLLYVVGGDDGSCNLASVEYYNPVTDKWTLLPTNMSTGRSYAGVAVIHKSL

T2: KLHL3 full-length protein (residues 1–587) (human, UniProt Q9UH77-1 1-587)
T2 construct: Kelch-like protein 3 (KLHL3), human, NM_017415.2, residues 1-587; also called Kelch-like protein 3; source: Sf21 cells, expressed and purified as a DAC-(TEV protease)KLHL3 fusion protein
T2 sequence (looked up): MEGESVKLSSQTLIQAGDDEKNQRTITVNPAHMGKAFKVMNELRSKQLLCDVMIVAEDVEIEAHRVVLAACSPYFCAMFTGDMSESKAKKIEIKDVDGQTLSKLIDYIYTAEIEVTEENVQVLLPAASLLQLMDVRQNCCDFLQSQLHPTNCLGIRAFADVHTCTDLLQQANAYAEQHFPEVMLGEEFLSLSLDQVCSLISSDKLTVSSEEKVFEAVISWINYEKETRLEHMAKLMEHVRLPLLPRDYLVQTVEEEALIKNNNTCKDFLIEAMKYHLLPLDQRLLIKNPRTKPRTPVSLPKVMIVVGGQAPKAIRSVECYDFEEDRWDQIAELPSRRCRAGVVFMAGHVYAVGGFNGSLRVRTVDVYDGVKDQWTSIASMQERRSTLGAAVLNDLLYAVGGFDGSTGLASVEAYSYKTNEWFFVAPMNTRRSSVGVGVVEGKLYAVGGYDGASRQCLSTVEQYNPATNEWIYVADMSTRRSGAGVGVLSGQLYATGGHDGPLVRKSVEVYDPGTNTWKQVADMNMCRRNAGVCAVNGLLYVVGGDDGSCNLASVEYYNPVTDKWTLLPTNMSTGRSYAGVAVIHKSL

T3: GST–KLHL3^290–587 R528H (human, UniProt Q9UH77-1 290-587, R528H)
T3 construct: KLHL3, human, NM_017415.2, Kelch domain, residues 290-587, with the Gordon's syndrome mutation R528H; Mutation found in patients with Gordon's syndrome; also called KLHL3 R528H; source: E. coli BL21, purified (glutathione–Sepharose); not shown: GST, N-terminal, kept
T3 sequence (looked up): T1 sequence (looked up) with R239H, K240N

B1: 19-residue WNK4 degron peptide (WNK4 WT 549–567) (peptide)
peptide: GPPSVFPPEPEEPEADQHQ
modifications: not fully specified (N-terminus); also: Lumio Green fluorophore on N-terminal linker CCPGCCGGGG
notes: WNK4 acidic degron, residues 549-567; also called WNK4 19-residue peptide; source: synthetic peptide (GL Biochem)

Assays:
[1] = molecular target: GST–KLHL3^290–587 R528H (Homo sapiens, UniProt Q9UH77, R528H); type: binding
[2] = molecular target: T1, GST–KLHL3^290–587 N529K; assay: fluorescence polarisation; Kelch protein titrated against 10 nM Lumio-Green-labelled peptide; 25°C; 50 mM Tris/HCl pH 7.5, 150 mM NaCl, 2 mM DTT; one-site specific binding with Hill slope; duplicates, at least 12 points per curve; conditions: both partners purified
[3] = molecular target: T2, KLHL3 full-length protein (residues …); assay: as above; conditions: both partners purified
[4] = molecular target: T3, GST–KLHL3^290–587 R528H; assay: as above; conditions: both partners purified

| Molecule | reduction of binding relative to wild-type KLHL3 [1] | Kd [2] [nM] | Kd [3] [nM] | Kd [4] [nM] |
| --- | --- | --- | --- | --- |
| CC(C)[C@H](NC(=O)[C@H](CO)NC(=O)[C@@H]1CCCN1C(=O)[C@@H]1CCCN1C(=O)CNC(=O)CNC(=O)CNC(=O)CNC(=O)CNC(=O)[C@@H]1CS[As]2SC[C@H](NC(=O)CNC(=O)[C@@H]3CCCN3C(=O)[C@@H]3CS[As](SC[C@H](N)C(=O)N3)c3c(O)ccc4c3Oc3c(ccc(O)c32)C42OC(=O)c3ccccc32)C(=O)N1)C(=O)N[C@@H](Cc1ccccc1)C(=O)N1CCC[C@H]1C(=O)N1CCC[C@H]1C(=O)N[C@@H](CCC(=O)O)C(=O)N1CCC[C@H]1C(=O)N[C@@H](CCC(=O)O)C(=O)N[C@@H](CCC(=O)O)C(=O)N1CCC[C@H]1C(=O)N[C@@H](CCC(=O)O)C(=O)N[C@@H](C)C(=O)N[C@@H](CC(=O)O)C(=O)N[C@@H](CCC(N)=O)C(=O)N[C@@H](Cc1cnc[nH]1)C(=O)N[C@@H](CCC(N)=O)C(=O)O (stereo partly shown) [WNK4 WT 549–567] (X1-GGGGGPPSVFPPEPEEPEADQHQ-OH) | approximately 10 fold |  |  |  |
| B1 |  | 6600 | 620 | 1930 |
